Test results: patent US10563171B2, “Method for inducing differentiation of pluripotent stem cells into germ cells” (Kyoto University, priority 2015, dated 2020)

Assays:
[1] = test system: BTAG 585B1-868 hiPSCs; assay: Induction of iMeLCs from hiPSCs having induction capacity into BTAG positive cells (FACS of BTAG(+) cells); format: cell-based, human; conditions: added during induction of iMeLC; FIG. 10D, 10E
Procedure: (§1) Initial mesoderm-like cells (iMeLCs) were induced by seeding hiPSCs maintained in StemFit™ in a 12 well plate coated with human plasma fibronectin (Millipore, FC010) at 1.0-2.0×10^5 cells per well in GK15 medium [GMEM containing 15% KSR, 0.1 mM NEAA, 2 mM L-glutamine, 1 mM sodium pyruvate and 0.1 mM 2-mercaptoethanol (Life Technologies)] containing 50 ng/ml activin A, 3 μM CHIR99021 and 10 μM ROCK inhibitor (Y-27632; Wako Pure Chemical Industries). The hiPSCs were induced by seeding in a low-cell-binding V-bottom 96 wellplate (Thermo, 81100574) at 3.0×10^3 cells per well in GK15 added with 1000 U/ml LlF (Millipore, #LIF1005), 200 ng/ml BMP 4,100 ng/ml SCF (R&D Systems, 455-MC), 50 ng/ml EGF (R&D Systems, 236-EG), and 10 μM ROCK inhibitor. For investigation of conditions and induction of iMeLCs or hPGCLC, PD173074 (StemGent, #04-0008) or LDN193189 (StemGent, #04-0074) was respectively added. Other than the above, WNT3A (R&D Systems, 5036-WN) was used instead of CHIR99021, and BMP2 (R&D Systems, 355-BM), BMP7 (R&D Systems, 354-BP), or BMP8A (R&D Systems, 1073-BP) was used instead of BMP4.
(§2) Floating aggregates containing hPGCLCs were separated by treating with 0.05% Trypsin-EDTA/PBS at 37° C. for 10 min. […] The collected cells were suspended in FACS buffer (0.1% BSA in PBS) and analyzed by a flow cytometer (ARIA III; BD Biosciences). […]

[2] = test system: iMeLCs; assay: Induction of BTAG positive cells (hPGCLCs) from iMeLCs in floating aggregates; format: cell-based, human; conditions: combination of BMP4, LIF, SCF and EGF changed; FIG. 11A-D
Procedure: as §1, §2

B1: BMP4: bone morphogenetic 4 (protein, UniProt P12644 293-408, looked up)
Bone morphogenetic protein 4: SPKHHSQRARKKNKNCRRHSLYVDFSDVGWNDWIVAPPGYQAFYCHGDCPFPLADHLNSTNHAIVQTLVNSVNSSIPKACCVPTELSAISMLYLDEYDKVVLKNYQEMVVEGCGCR
[1]
  effect of signaling on iMeLCs induction: acts negatively
[2]
  role in induction of BTAG positive cells from iMeLCs: essential
